Experimental data from US20260132192A1 (XBIOTECH, published 2026).

Target: T1, recombinant human IL-1α (human, UniProt P01583 113-271)
T1 sequence (looked up): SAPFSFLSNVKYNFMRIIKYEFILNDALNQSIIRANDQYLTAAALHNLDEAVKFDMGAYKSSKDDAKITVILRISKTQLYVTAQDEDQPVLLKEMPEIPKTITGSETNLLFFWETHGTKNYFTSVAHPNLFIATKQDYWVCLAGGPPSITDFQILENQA
Assay: cell-based or functional assay

HUVEC-based potency assay; ICAM-1 expression by flow cytometry after hIL-1α stimulation; IC50: 0.0187 µg/mL
B1: human monoclonal antibody designated XIA12 (antibody, V domains shown)
VH: QVQLVQSGAEVKKPGSSVKVSCKASGGRFTNYAILWVRQAPGQGLQWLGGIIPIFDETDHAQDFQDRLTITVDESMTTAYMELSSLRPEDTAIYYCATGSNSYYGLYWGQGTLVTVSS
VL: DIVMTQSPDFLAVSLGERATINCKSSQSVLYSSDNKNYLAWYQQKAGQPPKLLIYWASTRESGVPDRFSGSGSATDFTLTISSLQAEDVAVYYCQQYYSLPITFGQGTRLEIKR
